# In patent publication US9850300B2, “Compositions and methods relating to inhibiting cancer cell growth and/or proliferation” (The Regents of the University of Michigan, priority 2013, dated 2017):
# “Also recorded” adds a separate entry of the source.
# How the values were obtained:
# [1] = test system: ALDH+ and ALDH− cells; assay: Microfluidics device migration of individual cells in an EGFL6 gradient; format: cell-based
# Source text: EGF factors have been reported to enhance the migration and invasion of various cell populations. The impact of EGFL6 on cellular migration was therefore assessed. […] Finally, a novel microfluidics device was used to determine the impact of EGFL6 on the migration of individual cells. To more specifically assess the impact on ovarian CSC versus progenitors, ALDH+ and ALDH− cells were sorted and loaded into individual channels of a microfluidics device in which migration could be directly monitored. EGFL6 was added to a reservoir at one side of the device to create a gradient of expression. EGFL6 had no impact on the migration of ALDH(−) cells.
# [2] = test system: Human ovarian cancer ascites cells; assay: Tumor sphere assay, ALDH+ cell percentages; format: cell-based; details: EGFL6 treatment
# Source text: (§1) It has been shown that aldehyde dehydrogenase enzymatic activity (ALDH) is an excellent marker of ovarian CSCs in SKOV3 cells and primary patient samples (see, e.g., Silva, I. A., et al. Cancer Res (2011); Landen, C. N., Jr., et al. Mol Cancer Ther 9, 3186-3199 (2010); Steg, A. D., et al. Clin Cancer Res 18, 869-881 (2012); Kryczek, I., et al. Int J Cancer 130, 29-39 (2012); Deng, S., et al. PLoS ONE 5, e10277 (2010)). The impact of EGFL6 treatment on the percentage of ALDH^+ CSCs in vitro was next assessed. […] However, given the increase in total cell numbers, the absolute ALDH^+ CSC number remained unchanged (FIG. 3Aiii). […] Human ovarian cancer ascites cells were also treated with EGFL6 in a tumor sphere assay. Once again, treatment with EGLF6 was associated with a reduction in ALDH^+ cell percentages in tumor spheres (FIG. 3B).
# Sphere culture was performed as previously described (see, e.g., Silva, I. A., et al. Cancer Res (2011)). Briefly, single cell suspensions were plated in triplicate in ultra-low attachment plates (Corning, Acton, Mass., USA) in serum-free MEBM-2 (Lonza). Cells were plated at the indicated density and from 1,000-10,000 cells/ml in subsequent passage. Sphere formation was assessed 2 weeks after seeding cells.
# [3] = test system: ALDH+ CSCs in SKOV3 cells; assay: ALDH+ cell percentage and number (ALDEFLUOR FACS); format: cell-based
# Source text: as §1
# SKOV3, A2008, and A2780 were maintained in RPMI-1640, supplemented with 10% FBS with 1% Penicillin/Streptomycin, and cultured in humidified atmosphere of 5% CO2 at 37° C. For all in vitro cell culture experiments, isolated cells were allow to recover overnight following FACS, prior to treatment. Infantile Hemangioma Stem cells were maintained in EBM-2 medium with growth factor supplement cocktails in culture plates coated with fibronectin. For Echistatin and EGFL6 treatment, cells were pretreated with Echistatin (Sigma, 100 nM) for 24 hours prior to EGFL6 treatment. All transfections were performed using FuGene6 reagent (Promega) per company protocol.
# FACS assay was performed as previously described (see, e.g., Silva, I. A., et al. Cancer Res (2011)). Briefly, SKOV3 cells or primary ovarian tumor/ascetics cells were stained for ALDH using ALDEFLUOR kit per company protocol (Stem Cell Technologies). DAPI staining was used to exclude non-viable cells. For FACS cell sorting, equal number of ALDH and ALDH^(−) cells were collected for subsequent experiments.
# EGFL6 monoclonal antibody producing hybridoma cells were maintained in RPMI medium supplemented with 10% FBS. For antibody purification, the cells were cultured in reduced FBS (5%). […]
# [4] = test system: primary ALDH+ and ALDH(−) cells; assay: Single cell microfluidic culture, cell division type; format: cell-based, human
# Source text: For primary cells, it was observed that over 50% of untreated ALDH^(−) cells underwent no division over 5 days, while remaining cells underwent symmetric division. […] 20% of ALDH^+ cells underwent no division. EGFL6 treatment of primary ALDH^+ cells was associated with a 1.9-fold increase in the number of ALDH^+ cells undergoing asymmetric division (FIG. 3Dii). EGFL6 treatment was associated with an increase in total cell numbers (90 EGFL6 treated cells yielded 585 total cells while 82 mock-treated cells yielded 451 cells).
# Informed consent was obtained from all patients before tissue procurement. All studies were performed with the approval of the Institutional Review Board of the University of Michigan. All tumors were stage III or IV epithelial ovarian or primary peritoneal cancer. Tumors were mechanically dissected into single-cell suspensions and isolated on a ficoll gradient as previously described (see, e.g., Pulaski, H. L., et al. J Transl Med 7, 49 (2009)). For ascites, cell pellets were collected by centrifugation; red cells were lysed using ACK buffer (Lonza, Hopkinton, Mass.), washed, passed through a 40-μm filter, then passed 4 times through a Standard Hub Pipetting needle to isolate single cells (see, e.g., Silva, I. A., et al. Cancer Res (2011)).
# [5] = test system: cellular migration; assay: In vitro scratch test wound healing assay; format: cell-based; details: EGFL6 treated cells
# [6] = test system: ALDH+ and ALDH(−) SKOV3 cells; assay: Single cell microfluidic culture, cell division type; format: cell-based
# Experimental: To determine if EGFL6 is promoting asymmetric division, a novel microfluidic culture device was used which allows the isolation, confirmation, and culture of individual cells. ALDH^+ and ALDH^(−) SKOV3 cells were FACS-sorted into separate microfluidic devices (see, e.g., Chung, J., Kim, Y. J. & Yoon, E. Appl Phys Lett 98, 123701 (2011)), and confirmed ALDH expression with fluorescent microscopy (FIG. 3Di). Cells were then mock-treated or treated with EGFL6. After 48 hours, live cells were stained using ALDEFLUOR and re-imaged using fluorescent microscopy (FIG. 3Dii, right panels). Cell divisions, type of daughter cell (ALDH^(−) or ALDH^+), and total cell number were assessed. […] Production of ALDH^+ daughter cells from ALDH^(−) cells was not observed. […] This was associated with a statistically significant increase in total cell numbers; 6.5 versus 3.7 average cells/well and total 325 vs. 185 total cells/50 captured cells in EGFL6 treated and control ALDH^(+) cells respectively.
# [7] = ALDH+ SKOV3 cells, EGFL6 treated
molecule,measurement,setting,value
"EGFL6: recombinant EGFL6-flag protein from transfected HEK293 cells, used purified or as 72 hr supernatant (protein) NAASARHHGLLASARQPGVCHYGTKLACCYGWRRNSKGVCEATCEPGCKFGECVGPNKCRCFPGYTGKTCSQDVNECGMKPRPCQHRCVNTHGSYKCFCLSGHMLMPDATCVNSRTCAMINCQYSCEDTEEGPQCLCPSSGLRLAPNGRDCLDIDECASGKVICPYNRRCVNTFGSYYCKCHIGFELQYISGRYDCIDINECTMDSHTCSHHANCFNTQGSFKCKCKQGYKGNGLRCSAIPENSVKEVLRAPGTIKDRIKKLLAHKNSMKKKAKIKNVTPEPTRTPTPKVNLQPFNYEEIVSRGGNSHGGKKGNEEKMKEGLEDEKREEKALKNDIEERSLRGDVFFPKVNEAGEFGLILVQRKALTSKLEHKDLNISVDCSFNHGICDWKQDREDDFDWNPADRDNAIGFYMAVPALAGHKKDIGRLKLLLPDLQPQSNFCLLFDYRLAGDKVGKLRVFVKNSNNALAWEKTTSEDEKWKTGKIQLYQGTDATKSIIFEAERGKGKTGEIAVDGVLLVSGLCPDSLLSVDD",migration of ALDH(−) cells,[1],no impact
same,migration of ALDH+ cells,[1],robust migration
same,ALDH+ cell percentages in tumor spheres,[2],reduction
same,percentages of ALDH+ CSCs,[3]; EGFL6 treatment,decreasing percentages; also recorded: reduced
same,absolute ALDH+ CSC number,[3]; increasing concentrations of EGFL6,unchanged
same,total cells yielded,[4]; from 90 EGFL6 treated primary cells,585 total cells
same,symmetric divisions of ALDH(−) cells,"[4]; primary ALDH(−) cells, 5 days",non-statistically significant increase
same,increase in the number of ALDH+ cells undergoing asymmetric division,[4]; primary ALDH+ cells,1.9 fold
same,increase in the rate of wound closure,[5],40%
same,number or type of cell divisions of ALDH(−) cells,"[6]; ALDH(−) SKOV3 cells, 48 hours",no significant impact
same,increase in the percentage of ALDH+ cells undergoing asymmetric division,"[6]; ALDH+ SKOV3 cells, 48 hours, vs mock-treated",2 fold
same,average cells/well,[6]; [7],6.5 cells/well
same,total cells/50 captured cells,[6]; [7],325 total cells/50 captured cells
